Reference: paper PMC7763487 (2020)

B1: (Flag)3-TET1 full-length Δ1+2 (Δ109–120 + Δ1132–1202) [mouse] / (HA)3-NANOG [mouse] (parent complex)
chain 1: MSRSRPAKPSKSVKTKLQKKKDIQMKTKTSKQAVRHGASAKAVNPGKPKQLIKRRDGKKETEDKTPTPAPSFLTRAGAARMNRDRNQVLFQNPDSLTCNGFTMALRRTTPKPKKVPPSKKQCTHNIQDEPGVKHSENDSVPSQHATVSPGTENGEQNRCLVEGESQEITQSCPVFEERIEDTQSCISASGNLEAEISWPLEGTHCEELLSHQTSDNECTSPQECAPLPQRSTSEVTSQKNTSNQLADLSSQVESIKLSDPSPNPTGSDHNGFPDSSFRIVPELDLKTCMPLDESVYPTALIRFILAGSQPDVFDTKPQEKTLITTPEQVGSHPNQVLDATSVLGQAFSTLPLQWGFSGANLVQVEALGKGSDSPEDLGAITMLNQQETVAMDMDRNATPDLPIFLPKPPNTVATYSSPLLGPEPHSSTSCGLEVQGATPILTLDSGHTPQLPPNPESSSVPLVIAANGTRAEKQFGTSLFPAVPQGFTVAAENEVQHAPLDLTQGSQAAPSKLEGEISRVSITGSADVKATAMSMPVTQASTSSPPCNSTPPMVERRKRKACGVCEPCQQKANCGECTYCKNRKNSHQICKKRKCEVLKKKPEATSQAQVTKENKRPQREKKPKVLKTDFNNKPVNGPKSESMDCSRRGHGEEEQRLDLITHPLENVRKNAGGMTGIEVEKWAPNKKSHLAEGQVKGSCDANLTGVENPQPSEDDKQQTNPSPTFAQTIRNGMKNVHCLPTDTHLPLNKLNHEEFSKALGNNSSKLLTDPSNCKDAMSVTTSGGECDHLKGPRNTLLFQKPGLNCRSGAEPTIFNNHPNTHSAGSRPHPPEKVPNKEPKDGSPVQPSLLSLMKDRRLTLEQVVAIEALTQLSEAPSESSSPSKPEKDEEAHQKTASLLNSCKAILHSVRKDLQDPNVQGKGLHHDTVVFNGQNRTFKSPDSFATNQALIKSQGYPSSPTAEKKGAAGGRAPFDGFENSHPLPIESHNLENCSQVLSCDQNLSSHDPSCQDAPYSQIEEDVAAQLTQLASTINHINAEVRNAESTPESLVAKNTKQKHSQEKRMVHQKPPSSTQTKPSVPSAKPKKAQKKARATPHANKRKKKPPARSSQENDQKKQEQLAKEKVKVEPSDSLPTCQFKTESGGQTFAEPADNSQGQPMVSVNQEAHPLPQSPPSNQCANIMAGAAQTQFHLGAQENLVHQIPPPTLPGTSPDTLLPDPASILRKGKVLHFDGITVVTEKREAQTSSNGPLGPTTDSAQSEFKESIMDLLSKPAKNLIAGLKEQEAAPCDCDGGTQKEKGPYYTHLGAGPSVAAVRELMETRFGQKGKAIRIEKIVFTGKEGKSSQGCPVAKWVIRRSGPEEKLICLVRERVDHHCSTAVIVVLILLWEGIPRLMADRLYKELTENLRSYSGHPTDRRCTLNKKRTCTCQGIDPKTCGASFSFGCSWSMYFNGCKFGRSENPRKFRLAPNYPLHNYYKRITGMSSEGSDVKTGWIIPDRKTLISREEKQLEKNLQELATVLAPLYKQMAPVAYQNQVEYEEVAGDCRLGNEEGRPFSGVTCCMDFCAHSHKDIHNMHNGSTVVCTLIRADGRDTNCPEDEQLHVLPLYRLADTDEFGSVEGMKAKIKSGAIQVNGPTRKRRLRFTEPVPRCGKRAKMKQNHNKSGSHNTKSFSSASSTSHLVKDESTDFCPLQASSAETSTCTYSKTASGGFAETSSILHCTMPSGAHSGANAAAGECTGTVQPAEVAAHPHQSLPTADSPVHAEPLTSPSEQLTSNQSNQQLPLLSNSQKLASCQVEDERHPEADEPQHPEDDNLPQLDEFWSDSEEIYADPSFGGVAIAPIHGSVLIECARKELHATTSLRSPKRGVPFRVSLVFYQHKSLNKPNHGFDINKIKCKCKKVTKKKPADRECPDVSPEANLSHQIPSRVASTLTRDNVVTVSPYSLTHVAGPYNRWV
chain 2: MSVGLPGPHSLPSSEEASNSGNASSMPAVFHPENYSCLQGSATEMLCTEAASPRPSSEDLPLQGSPDSSTSPKQKLSSPEADKGPEEEENKVLARKQKMRTVFSQAQLCALKDRFQKQKYLSLQQMQELSSILNLSYKQVKTWFQNQRMKCKRWQKNQWLKTSNGLIQKGSAPVEYPSIHCSYPQGYLVNASGSLSMWGSQTWTNPTWSSQTWTNPTWNNQTWTNPTWSSQAWTAQSWNGQPWNAAPLHNFGEDFLQPYVQLQQNFSASDLEVNLEATRESHAHFSTPQALELFLNYSVTPPGEI

Variants of: B1
Experiment: co-immunoprecipitation (anti-Flag IP), quantified immunoblot; E14/T ESCs; parent: 0.29; read off a plot

Row | screen value | Variant
1 | ~0.065 | chain 1 F1440A, chain 1 F1442A, chain 1 W1446A, chain 1 Y1449A, chain 1 F1450A, chain 1 F1455A, chain 1 F1464A
